The source of these data is patent publication US20200239578A1 (Eli Lilly, published 2020).

Assay [1] addresses human BTLA on human cells (PBMCs, Ramos.2G6.4C10 B cell line, primary B cells) (human, UniProt Q7Z6A9 31-289). As to the kind of experiment: cell-based or functional assay.
Assay [2] addresses T1, murine (C57BL6) BTLA protein (immobilised on the Biacore chip) (mouse (C57BL6), UniProt Q7TSA3 30-183, limits assumed).
T1 construct: also called Mouse C57BL6 BTLA
T1 chain: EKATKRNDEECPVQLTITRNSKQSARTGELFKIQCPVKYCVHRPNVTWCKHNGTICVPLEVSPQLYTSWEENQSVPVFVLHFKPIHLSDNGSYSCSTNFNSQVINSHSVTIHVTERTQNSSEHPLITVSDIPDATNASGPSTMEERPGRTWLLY
As to the kind of experiment: SPR (Biacore 3000), BTLA amine-coupled to the chip, antibody flowed, 25 C, 1:1 Langmuir fit. The protocol:
(§1) The binding affinity and kinetics of the BTLA agonist antibodies of the present invention (22B3, 23C8, and 25F7) to BTLA are measured by surface plasmon resonance using Biacore® 3000 (GE Healthcare). […] The experiments are carried out at 25° C. in HBS-EP buffer (GE Healthcare BR100669; 10 mM HEPES, 150 mM NaCl, 3 mM EDTA, 0.05% surfactant P20, pH 7.4). For each cycle, 250 μL antibody sample is flowed through flow cell 1 and 2 at 50 μ1/min, and then dissociated for 10 minutes. The chip surface is regenerated with 5 μL injection of glycine buffer at pH 1.5 at […] flow rate. The data are fit to a 1:1 Langmiur binding model to derive kₒₙ, k_{off,} and to calculate KD. Data shown below are the average of three experiments for human, cyno, rat and murine for 22B3.
A general note: In SPR one partner is held on a chip, and binding of the other changes the refractive index at the surface.

For assay [3], the target named is T2, murine (Balbc) BTLA protein (immobilised on the Biacore chip) (mouse (Balbc), UniProt Q7TSA3 30-183, limits assumed).
T2 construct: also called Mouse Balbc BTLA
T2 chain: T1 chain with P12E, T16N, T18K, Q23H, R26W, Q34E, C56W, S62G, Q73R, T114R
The description is as above. On the procedure: as §1

For assay [4], the target named is T3, human BTLA protein (immobilised on the Biacore chip) (human, UniProt Q7Z6A9 31-150, limits assumed).
T3 construct: also called B and T Lymphocyte Attenuator; CD272
T3 sequence: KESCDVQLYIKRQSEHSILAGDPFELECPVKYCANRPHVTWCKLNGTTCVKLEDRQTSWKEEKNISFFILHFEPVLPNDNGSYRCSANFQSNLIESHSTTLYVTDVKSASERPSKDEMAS
Described as above. The protocol:
as §1

Assay [5] deals with T4, rat BTLA protein (immobilised on the Biacore chip) (rat, UniProt Q6PNM1 30-183, limits assumed).
T4 sequence (looked up): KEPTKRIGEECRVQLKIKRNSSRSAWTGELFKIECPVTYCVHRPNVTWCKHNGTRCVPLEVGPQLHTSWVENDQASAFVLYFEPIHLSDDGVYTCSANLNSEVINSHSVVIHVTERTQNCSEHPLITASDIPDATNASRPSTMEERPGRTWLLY
The assay is described as above. On the procedure: as §1

Assay [6] concerns the target T5, cynomolgus monkey BTLA protein (immobilised on the Biacore chip) (cynomolgus monkey, limits assumed).
T5 construct: also called Cyno BTLA
T5 chain: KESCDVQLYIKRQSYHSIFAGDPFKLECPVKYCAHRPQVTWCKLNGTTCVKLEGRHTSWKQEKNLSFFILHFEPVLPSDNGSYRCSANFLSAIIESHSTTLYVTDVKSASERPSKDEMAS
The assay is described as above. On the procedure: as §1

Assay [7] has as its target T6, mouse BTLA on splenocytes of C57BL6 mice (mouse (C57BL6), UniProt Q7TSA3 30-306).
T6 construct: Endogenous BTLA on primary cells; also called mouse BTLA-expressing cells
T6 sequence: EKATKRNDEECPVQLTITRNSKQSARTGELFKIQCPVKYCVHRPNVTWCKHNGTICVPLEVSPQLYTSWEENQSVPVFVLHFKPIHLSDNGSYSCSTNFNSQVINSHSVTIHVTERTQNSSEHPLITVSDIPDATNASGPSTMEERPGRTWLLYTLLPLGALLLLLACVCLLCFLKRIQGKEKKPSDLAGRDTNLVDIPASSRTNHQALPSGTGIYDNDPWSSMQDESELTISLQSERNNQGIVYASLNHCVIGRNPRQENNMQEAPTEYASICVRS
As to the kind of experiment: flow cytometry (FACS) on primary cells. On the procedure:
(§2) Isolated primary cells are quantified using a Countess cell counter, and resuspended at 2×10⁶ cells per ml in FACS buffer. Flow cytometry experiments is performed the same day as cell isolation by plating 50 μl (˜0.1×10⁶) cells into a 96 well plate (Greiner #650101). Non-specific antibody binding is prevented by adding 1 μl Fc block (for example, from BD #553142) for 15 minutes at 4 ° C. without washing.
(§3) BTLA antibody binding is tested at various concentrations, by serial dilution in FACS buffer. For example, a purified antibody and controls starting at different concentrations are first diluted to 30 μg/mL and serial 1:3 dilutions of the starting material is performed for a total of 10 titrations (plus untreated control). Antibody titrations are incubated with cells for 20 minutes at 4° C., and washed with FACS buffer prior to stain. Cells are stained using fluorochrome-conjugated antibodies to identify specific cell types (eg. CD19 B cells, CD4 T cells or CD8 T cells) or using a secondary antibody to identify the presence or absence of antibody binding to that subset. Staining is performed for 20 minutes at 4° C. and washed 3 times with FACS buffer prior to analysis on a flow cytometer. Results are analyzed using standard FACS analysis software (eg. FACSDiva) and reported as mean fluorescent intensity of the secondary antibody for each titration. A positive result, which indicates binding, is determined by mean fluorescent intensity staining above background.
(In general: In flow cytometry, cells or beads pass a laser one at a time.)

Assay [8] addresses T7, cynomolgus monkey BTLA on cyno PBMCs (cynomolgus monkey, UniProt Q7Z6A9 31-289 (human entry)).
T7 construct: Endogenous BTLA on primary cells; also called cynomolgus monkey BTLA-expressing cells
T7 chain: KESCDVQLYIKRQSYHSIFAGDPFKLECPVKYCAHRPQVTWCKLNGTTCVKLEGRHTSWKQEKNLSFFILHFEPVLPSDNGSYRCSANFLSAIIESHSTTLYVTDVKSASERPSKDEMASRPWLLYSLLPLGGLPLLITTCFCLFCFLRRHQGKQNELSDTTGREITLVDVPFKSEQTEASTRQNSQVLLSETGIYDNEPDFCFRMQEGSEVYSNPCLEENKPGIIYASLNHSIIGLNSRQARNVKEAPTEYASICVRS
Kind of assay: flow cytometry (FACS) on primary cells. The protocol:
as §2, §3

Assay [9] has as its target T1, murine (C57BL6) BTLA protein …. As to the kind of experiment: SPR (Biacore 3000), BTLA amine-coupled to the chip, antibody flowed. On the procedure: as §1
The target in assay [10] is T2, murine (Balbc) BTLA protein …. The assay is described as above. On the procedure: as §1

Positions count from the first letter of the chain named.

B1: Antibody 22B3 (antibody, human IgG4 S228P, kappa, F234A L235A, V domains shown)
VH: QVQLVQSGAEVKKPGASVKVSCKASGFSLSSYGVSWVRQAPGQGLEWMGAISYDGITYYASWAKSRVTMTRDTSTSTVYMELSSLRSEDTAVYYCARGDYYDDYVYVYALDIWGQGTLVTVSS
VL: EIVLTQSPGTLSLSPGERATLSCQASQSISTALAWYQQKPGQAPRLLIYAASTLASGIPDRFSGSGSGTDFTLTISRLEPEDFAVYYCQQGYSSSNLDNVFGGGTKVEIKR
notes: also called humanized 22B3; BTLA agonist antibody 22B3
Usually Kd stands for the constant that tells how readily two partners part at equilibrium. The koff is the first-order rate constant of dissociation. As usually defined, the kon is the second-order rate constant of association. Consider B1, for which the “IC50 of inhibition of human primary B cell proliferation ([3H]-thymidine)” value in assay [1] was found to be 0.32 nM. Also, the “IC50 of inhibition of human primary B cell proliferation ([3H]-thymidine), similar experiment beside Mab8D5” value in [1] came out at 0.32 nM. The “fold increase in tyrosine phosphorylation of BTLA over background compared to negative control (Ramos B cell line, MSD)” value in assay [1] was found to be 2.41 fold. In addition, the dissociation constant Kd in assay [2] was determined as 147 nM; in assay [3] it was 32.5 nM; in assay [4] it was 0.365 nM; in assay [5], 24.1 nM; in [6], 0.27 nM. Besides, the off-rate (koff) in assay [2] came to 0.265 s⁻¹; in assay [3], 0.0858 s⁻¹; in assay [4] it was 0.00219 s⁻¹; in [5], 0.0462 s⁻¹; in [6] it was 0.000647 s⁻¹. In addition, the kon in assay [2] stood at 1.89e+06 M⁻¹ s⁻¹; in assay [3], 2.6e+06 M⁻¹ s⁻¹; in [4] it was 5.87e+06 M⁻¹ s⁻¹; in [5], 2.1e+06 M⁻¹ s⁻¹; in assay [6], 2.45e+06 M⁻¹ s⁻¹. The binding result in [7] and in [8] was “binds” in each case.

B2: Antibody 23C8 (antibody, human IgG4 S228P, kappa, F234A L235A, V domains shown)
VH: EVQLVESGGGLVQPGGSLRLSCAASGFDISKYNIQWVRQAPGKGLEWVGFINYGGSAYYASRAKGRFTISRDDSKNSLYLQMNSLKTEDTAVYYCARGLSNSDLWGQGTLVTVSS
VL: DIQMTQSPSSLSASVGDRVTITCQASQSISSWLSWYQQKPGKAPKLLIYRASTLASGVPSRFSGSGSGTDFTFTISSLQPEDIATYYCQSTYGGVVGSTSDDNPFGGGTKVEIKR
notes: also called BTLA agonist antibody 23C8
Take B2: in assay [1], the “IC50 of inhibition of human primary B cell proliferation ([3H]-thymidine)” value is 0.14 nM. Besides, the binding result is recorded as “no binding” in [9], “no binding” in [10] and “binds” in assay [8]. For the same molecule, the figures for the equilibrium dissociation constant (Kd) in [4] and in [6] were 1.93 nM and 35.4 nM, respectively. In addition, the koff in [4] worked out at 0.000293 s⁻¹; in assay [6], 0.00309 s⁻¹. Besides, the on-rate constant (kon) in [4] was 159000 M⁻¹ s⁻¹; in [6], 87100 M⁻¹ s⁻¹.

B3: Antibody 25F7 (antibody, human IgG4 S228P, kappa, F234A L235A, V domains shown)
VH: QVQLVQSGAEVKKPGASVKVSCKASGFSLSTYAMNWVRQAPGQGLEWMGIISDDGTTYYATWAKGRVTMTRDTSTSTVYMELSSLRSEDTAVYYCARDAGAGGVQDYLTLWGQGTLVTVSS
VL: DIVMTQSPDSLAVSLGERATINCQASENIYNFLAWYQQKPGQPPKLLIYSASTLASGVPDRFSGSGSGTDFTLTISSLQAEDVAVYYCQQGSSNSNIDNPFGGGTKVEIKR
notes: also called BTLA agonist antibody 25F7
Consider B3, for which, in [1], the “IC50 of inhibition of human primary B cell proliferation ([3H]-thymidine)” value was found to be 0.17 nM and the “fold increase in tyrosine phosphorylation of BTLA over background compared to negative control (Ramos B cell line, MSD)” value turned out to be 1.47 fold. In assay [2], the equilibrium dissociation constant (Kd) was determined as 4.63 nM, the off-rate (koff) was 0.00035 s⁻¹ and the on-rate constant (kon) came to 77000 M⁻¹ s⁻¹. Besides, in assay [4], the Kd amounted to 206 nM, the koff was determined as 0.0142 s⁻¹ and the on-rate (kon) worked out at 68600 M⁻¹ s⁻¹. Moreover, in [7], the binding result was “binds”. Also, the binding result in assay [8] is “binds”.
